Source: the supplement of paper PMC9112550, “Optimization of the antimicrobial peptide Bac7 by deep mutational scanning” (BMC Biology, 2022)

System: Escherichia coli TOP10
Experiment: shrunken log2 fold change of peptide-encoding DNA abundance (4.5 h post-induction vs induction); higher = less antimicrobial activity (less host growth inhibition)
Conditions: time post-induction: 4.5 h; library: site-saturation at positions 5, 18, 19, 20
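Also: peptides expressed intracellularly from a pBAD plasmid library in pooled LB shake-flask culture, induced with 0.3% L-arabinose, DNA abundance read by NGS, three biological replicates, DESeq2 with apeglm shrinkage.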

In order of rising “shrunken log2 fold change” value:
1. RRIRCRPPRLPRPRPRPYLNPRP  -1.32
2. RRIRCRPPRLPRPRPRPYYQPRP  -1.14
3. RRIRCRPPRLPRPRPRPYIEPRP  -1.03
4. RRIRCRPPRLPRPRPRPYMFPRP  -1.01
5. RRIRCRPPRLPRPRPRPYNLPRP  -0.986
6. RRIRCRPPRLPRPRPRPYWTPRP  -0.966
7. RRIRCRPPRLPRPRPRPYVEPRP  -0.942
8. RRIRCRPPRLPRPRPRPWNHPRP  -0.939
9. RRIRCRPPRLPRPRPRPYNYPRP  -0.914
10. RRIRCRPPRLPRPRPRPYCGPRP  -0.888
11. RRIRCRPPRLPRPRPRPYKIPRP  -0.785
12. RRIRCRPPRLPRPRPRPVYGPRP  -0.747
13. RRIRCRPPRLPRPRPRPWFPPRP  -0.699
14. RRIRCRPPRLPRPRPRPWLIPRP  -0.564
15. RRIRCRPPRLPRPRPRPYFAPRP  -0.563
16. RRIRCRPPRLPRPRPRPYHMPRP  -0.56
17. RRIRCRPPRLPRPRPRPVYAPRP  -0.515
18. RRIRCRPPRLPRPRPRPWMLPRP  -0.419
19. RRIRCRPPRLPRPRPRPYAPPRP  -0.412
20. RRIRDRPPRLPRPRPRPCWNPRP  -0.389
21. RRIRCRPPRLPRPRPRPWIRPRP  -0.374
22. RRIRCRPPRLPRPRPRPWDSPRP  -0.36
23. RRIRCRPPRLPRPRPRPWVKPRP  -0.352
24. RRIRCRPPRLPRPRPRPYYYPRP  -0.346
25. RRIRCRPPRLPRPRPRPTSIPRP  -0.343
26. RRIRCRPPRLPRPRPRPVYEPRP  -0.342
27. RRIRCRPPRLPRPRPRPWWKPRP  -0.334
28. RRIRCRPPRLPRPRPRPWSDPRP  -0.324
29. RRIRCRPPRLPRPRPRPVAHPRP  -0.277
30. RRIRCRPPRLPRPRPRPYQEPRP  -0.276
31. RRIRDRPPRLPRPRPRPCQHPRP  -0.276
32. RRIRCRPPRLPRPRPRPWYCPRP  -0.248
33. RRIRCRPPRLPRPRPRPYPFPRP  -0.241
34. RRIRCRPPRLPRPRPRPWFFPRP  -0.24
35. RRIRCRPPRLPRPRPRPWAKPRP  -0.234
36. RRIRDRPPRLPRPRPRPCPHPRP  -0.228
37. RRIRCRPPRLPRPRPRPVFNPRP  -0.204
38. RRIRCRPPRLPRPRPRPYWCPRP  -0.201
39. RRIRCRPPRLPRPRPRPVNKPRP  -0.196
40. RRIRCRPPRLPRPRPRPTVNPRP  -0.184
41. RRIRDRPPRLPRPRPRPDHYPRP  -0.183
42. RRIRCRPPRLPRPRPRPWVHPRP  -0.169
43. RRIRDRPPRLPRPRPRPDRCPRP  -0.149
44. RRIRCRPPRLPRPRPRPVMTPRP  -0.147
45. RRIRCRPPRLPRPRPRPWNCPRP  -0.142
46. RRIRCRPPRLPRPRPRPYMRPRP  -0.142
47. RRIRDRPPRLPRPRPRPDFHPRP  -0.139
48. RRIRCRPPRLPRPRPRPVMCPRP  -0.127
49. RRIRCRPPRLPRPRPRPWIEPRP  -0.123
50. RRIRDRPPRLPRPRPRPDNQPRP  -0.105
51. RRIRDRPPRLPRPRPRPDKGPRP  -0.0944
52. RRIRCRPPRLPRPRPRPWMIPRP  -0.0852
53. RRIRDRPPRLPRPRPRPCEAPRP  -0.0794
54. RRIRCRPPRLPRPRPRPWQMPRP  -0.0748
55. RRIRCRPPRLPRPRPRPVPDPRP  -0.0739
56. RRIRCRPPRLPRPRPRPTTGPRP  -0.0721
57. RRIRDRPPRLPRPRPRPAFPPRP  -0.0705
58. RRIRDRPPRLPRPRPRPCPEPRP  -0.0682
59. RRIRDRPPRLPRPRPRPCDLPRP  -0.0487
60. RRIRCRPPRLPRPRPRPYANPRP  -0.0471
61. RRIRDRPPRLPRPRPRPEIFPRP  -0.0297
62. RRIRCRPPRLPRPRPRPWHCPRP  -0.0285
63. RRIRDRPPRLPRPRPRPCFSPRP  -0.0275
64. RRIRCRPPRLPRPRPRPYIWPRP  -0.0216
65. RRIRDRPPRLPRPRPRPCDHPRP  -0.0216
66. RRIRDRPPRLPRPRPRPEGIPRP  -0.0215
67. RRIRDRPPRLPRPRPRPAYEPRP  -0.0214
68. RRIRDRPPRLPRPRPRPCCQPRP  -0.0183
69. RRIRDRPPRLPRPRPRPDYHPRP  -0.0139
70. RRIRDRPPRLPRPRPRPAVIPRP  -0.0132
71. RRIRDRPPRLPRPRPRPDWPPRP  -0.0123
72. RRIRDRPPRLPRPRPRPDDCPRP  -0.00963
73. RRIRCRPPRLPRPRPRPWGCPRP  -0.00936
74. RRIRCRPPRLPRPRPRPVRCPRP  -0.00859
75. RRIRCRPPRLPRPRPRPWMWPRP  -0.00829
76. RRIRDRPPRLPRPRPRPDVKPRP  -0.00748
77. RRIRDRPPRLPRPRPRPCGFPRP  -0.0017
78. RRIRDRPPRLPRPRPRPCWCPRP  -0.00088
79. RRIRDRPPRLPRPRPRPCLSPRP  0.000319
80. RRIRDRPPRLPRPRPRPDFYPRP  0.00164
81. RRIRDRPPRLPRPRPRPAIHPRP  0.00344
82. RRIRCRPPRLPRPRPRPWNDPRP  0.00383
83. RRIRDRPPRLPRPRPRPACKPRP  0.00774
84. RRIRDRPPRLPRPRPRPCKEPRP  0.00884
85. RRIRDRPPRLPRPRPRPCELPRP  0.0111
86. RRIRCRPPRLPRPRPRPVAGPRP  0.0113
87. RRIRDRPPRLPRPRPRPASDPRP  0.0114
88. RRIRDRPPRLPRPRPRPDTKPRP  0.0114
89. RRIRDRPPRLPRPRPRPEHKPRP  0.0114
90. RRIRDRPPRLPRPRPRPECIPRP  0.0163
91. RRIRCRPPRLPRPRPRPWDQPRP  0.0182
92. RRIRDRPPRLPRPRPRPCKYPRP  0.0244
93. RRIRCRPPRLPRPRPRPVGHPRP  0.0304
94. RRIRDRPPRLPRPRPRPAKLPRP  0.0322
95. RRIRDRPPRLPRPRPRPCDDPRP  0.0345
96. RRIRCRPPRLPRPRPRPVGSPRP  0.0443
97. RRIRDRPPRLPRPRPRPCKNPRP  0.056
98. RRIRDRPPRLPRPRPRPAGKPRP  0.0578
99. RRIRDRPPRLPRPRPRPAYAPRP  0.058
100. RRIRCRPPRLPRPRPRPVHAPRP  0.065
101. RRIRCRPPRLPRPRPRPWDGPRP  0.0877
102. RRIRDRPPRLPRPRPRPCGNPRP  0.104
103. RRIRCRPPRLPRPRPRPVKIPRP  0.108
104. RRIRCRPPRLPRPRPRPWHSPRP  0.112
105. RRIRDRPPRLPRPRPRPAKVPRP  0.114
106. RRIRCRPPRLPRPRPRPTWAPRP  0.118
107. RRIRCRPPRLPRPRPRPWGVPRP  0.122
108. RRIRDRPPRLPRPRPRPEKEPRP  0.127
109. RRIRCRPPRLPRPRPRPTWNPRP  0.128
110. RRIRDRPPRLPRPRPRPEHNPRP  0.14
111. RRIRCRPPRLPRPRPRPVHDPRP  0.141
112. RRIRDRPPRLPRPRPRPEGVPRP  0.166
113. RRIRDRPPRLPRPRPRPCCIPRP  0.168
114. RRIRDRPPRLPRPRPRPDWRPRP  0.183
115. RRIRCRPPRLPRPRPRPTVFPRP  0.197
116. RRIRCRPPRLPRPRPRPVQCPRP  0.207
117. RRIRDRPPRLPRPRPRPCQEPRP  0.211
118. RRIRCRPPRLPRPRPRPWPVPRP  0.215
119. RRIRDRPPRLPRPRPRPDVPPRP  0.221
120. RRIRCRPPRLPRPRPRPTTPPRP  0.227
121. RRIRDRPPRLPRPRPRPANPPRP  0.234
122. RRIRCRPPRLPRPRPRPTRCPRP  0.236
123. RRIRDRPPRLPRPRPRPDWQPRP  0.252
124. RRIRCRPPRLPRPRPRPVARPRP  0.255
125. RRIRCRPPRLPRPRPRPVWWPRP  0.261
126. RRIRDRPPRLPRPRPRPAGPPRP  0.271
127. RRIRDRPPRLPRPRPRPCWEPRP  0.28
128. RRIRCRPPRLPRPRPRPTSGPRP  0.285
129. RRIRDRPPRLPRPRPRPCAYPRP  0.297
130. RRIRDRPPRLPRPRPRPAPIPRP  0.32
131. RRIRDRPPRLPRPRPRPAHFPRP  0.358
132. RRIRCRPPRLPRPRPRPTWTPRP  0.362
133. RRIRDRPPRLPRPRPRPEFQPRP  0.4
134. RRIRCRPPRLPRPRPRPVGRPRP  0.422
135. RRIRDRPPRLPRPRPRPDDEPRP  0.425
136. RRIRCRPPRLPRPRPRPVAPPRP  0.436
137. RRIRDRPPRLPRPRPRPEDPPRP  0.439
138. RRIRDRPPRLPRPRPRPECHPRP  0.479
139. RRIRDRPPRLPRPRPRPDGRPRP  0.655
140. RRIRDRPPRLPRPRPRPAPAPRP  0.661
141. RRIRDRPPRLPRPRPRPEKGPRP  0.71
142. RRIRDRPPRLPRPRPRPDVCPRP  0.833
143. RRIRCRPPRLPRPRPRPTRPPRP  0.938
144. RRIRDRPPRLPRPRPRPARVPRP  0.948
145. RRIRDRPPRLPRPRPRPDGWPRP  0.965
146. RRIRDRPPRLPRPRPRPEENPRP  1.11
147. RRIRDRPPRLPRPRPRPAVWPRP  1.19
148. RRIRDRPPRLPRPRPRPDAQPRP  1.21
149. RRIRDRPPRLPRPRPRPEIAPRP  1.31
150. RRIRDRPPRLPRPRPRPELGPRP  1.53
